{
  "source": "paper PMC8805157",
  "about": "(2021)",
  "parents": {"B1": {"name": "GFP-Atg11 (wild type) [S. cerevisiae] / PA-Atg19 [S. cerevisiae] (parent complex)", "chain 1": "MADADEYSTAPTQQEITPLQTTATIINAISGECITTNVDFFVSLDKFKQFIARKWKIPPDQLLILLPYGNKLKPSMFKELLINRSFTLNDFYVYDRRLFSLVSKPTPTNLLTSKDSNPMNSPNSNDLTETLEYLIKNSHISQYQGSDTIMIKPMPSPLEDADVDLSRLNYHSVTSLLTTNLGWLSALEIDVHYFKSLIPDIIAHIKRIFDGLTVCSQYLKLYCFDVESLYNSNVQFLNQLVDNGMTSKWEKCFNDTLSKLTALEGDSLQKFINIESLLENEKSVKILNHSINGKLNKIKREIDENASFRDIITVNIDRLRQMFTPNESKFELEDQMAESFEVLVSEMRTRSRNVLDKEEEEFNSQEFLKSMNVMLEKDKKESVKTLFTISQALYSQIGELIDLKKSLQKHAVAILGNIAFTQMEILGIKRLLLNECNKDLELYKKYEVEFAQVEDLPLIYGLYLIEKYRRLSWFQQILSFISNFNQDLELFKQNELRTRNKWVKNFGSIATVFCEDLLSSSDFKRLNEYHSHTSPPNEDEEDENENSIANYRQDLVKVSQAIDNYMTQIKETDVSEPIIDLLSKTLFETKRFHIIYSNFKNNNNNSSNGNSISPEGSIALKSDDVVKGYKTRIKKLESLLHEFQYSDIGHWPQGVLNTHLKPFRGSATSINKKKFLGASVLLEPANISEVNIDSVSQANNHQIQELESNVDDLLHQLQLLKEENNRKSMQISEMGKKISDLEVEKTAYRETLTNLNQELARLTNEEQSHRTEIFTLNASFKKQLNDIISQDNEKIEKLTGDYDDVSKSRERLQMDLDESNKKHEQEVNLLKADIERLGKQIVTSEKSYAETNSSSMEKGEKFETIPLAEDPGRENQISAYTQTLQDRIFDIISTNIFILENIGLLLTFDNNNNIQIRRVKGLKKGTAQSNILDESTQMLDAHDNSLIKSPVFQKLKDEYELIKSVANGSEKDTQQSIFLGNITQLYDNKLYEVAVIRRFKDIETLAKKLTKENKIKRTLLERFQREKVTLRNFQIGDLALFLPTRENVNSVGSMSSSTSSLSSSFSSVDLSTPPPLDAMSIQSSPSVIHSNVINQASISGRDKNKLMRPWAAFTAFEESTRYFLKDEKGLTKGKEWFVGRIVTLEHFVADSPSNNPFRLPKGSVWFQVTAVVVSYQGV", "chain 2": "MNNSKTNQQMNTSMGYPLTVYDECNKFQLIVPTLDANIMLWCIGQLSLLNDSNGCKHLFWQPNDKSNVRILLNNYDYGHLFKYLQCQRKCSVYIGEGTLKKYNLTISTSFDNFLDLTPSEEKESLCREDAHEDPVSPKAGSEEEISPNSTSNVVVSRECLDNFMKQLLKLEESLNKLELEQKVTNKEPNHRISGTIDIPEDRSELVNFFTELKTVKQLEDVFQRYHDYERLSQECDSKTEIASDHSKKETKIEVEPPNERSLQITMNQRDNSLYFQLFNNTNSVLAGNCKLKFTDAGDKPTTQIIDMGPHEIGIKEYKEYRYFPYALDLEAGSTIEIENQYGEVIFLGKYGSSPMINLRPPSRLSAESLQASQEPFYSFQIDTLPELDDSSIISTSISLSYDGDDNEKALTWEEL"}, "B2": {"name": "GFP-Atg11 (wild type) [S. cerevisiae] / Atg9-PA [S. cerevisiae] (parent complex)", "chain 1": "B1 chain 1", "chain 2": "MERDEYQLPNSHGKNTFLSRIFGLQSDEVNPSLNSQEMSNFPLPDIERGSSLLHSTNDSREDVDENDLRVPESDQGTSTEEEDEVDEEQVQAYAPQISDGLDGDHQLNSVTSKENVLETEKSNLERLVEGSTDDSVPKVGQLSSEEEEDNEFINNDGFDDDTPLFQKSKIHEFSSKKSNTIEDGKRPLFFRHILQNNRPQRDTQKLFTSSNAIHHDKDKSANNGPRNINGNQKHGTKYFGSATQPRFTGSPLNNTNRFTKLFPLRKPNLLSNISVLNNTPEDRINTLSVKERALWKWANVENLDIFLQDVYNYYLGNGFYCIILEKILNICTLLFVVFVSTYMGHCVDYSKLPTSHRVSDIIIDKCYSNSITGFTKFFLWMFYFFVILKIVQLYFDVQKLSELQNFYKYLLNISDDELQTLPWQNVIQQLMYLKDQNAMTANVVEVKAKNRIDAHDVANRIMRRENYLIALYNSDILNLSLPIPLFRTNVLTKTLEWNINLCVMGFVFNESGFIKQSILKPSQREFTREELQKRFMLAGFLNIILAPFLVTYFVLLYFFRYFNEYKTSPGSIGARQYTPIAEWKFREYNELYHIFKKRISLSTTLANKYVDQFPKEKTNLFLKFVSFICGSFVAILAFLTVFDPENFLNFEITSDRSVIFYITILGAIWSVSRNTITQEYHVFDPEETLKELYEYTHYLPKEWEGRYHKEEIKLEFCKLYNLRIVILLRELTSLMITPFVLWFSLPSSAGRIVDFFRENSEYVDGLGYVCKYAMFNMKNIDGEDTHSMDEDSLTKKIAVNGSHTLNSKRRSKFTAEDHSDKDLANNKMLQSYVYFMDDYSNSENLTGKYQLPAKKGYPNNEGDSFLNNKYSWRKQFQPGQKPELFRIGKHALGPGHNISPAIYSTRNPGKNWDNNNNGDDIKNGTNNATAKNDDNNGNNDHEYVLTESFLDSGAFPNHDVIDHNKMLNSNYNGNGILNKGGVLGLVKEYYKKSDVGR"}, "B3": {"name": "GFP-Atg11 (wild type) [S. cerevisiae] / Atg1-PA [S. cerevisiae] (parent complex)", "chain 1": "B1 chain 1", "chain 2": "MGDIKNKDHTTSVNHNLMASAGNYTAEKEIGKGSFATVYRGHLTSDKSQHVAIKEVSRAKLKNKKLLENLEIEIAILKKIKHPHIVGLIDCERTSTDFYLIMEYCALGDLTFLLKRRKELMENHPLLRTVFEKYPPPSENHNGLHRAFVLSYLQQLASALKFLRSKNLVHRDIKPQNLLLSTPLIGYHDSKSFHELGFVGIYNLPILKIADFGFARFLPNTSLAETLCGSPLYMAPEILNYQKYNAKADLWSVGTVVFEMCCGTPPFRASNHLELFKKIKRANDVITFPSYCNIEPELKELICSLLTFDPAQRIGFEEFFANKVVNEDLSSYELEDDLPELESKSKGIVESNMFVSEYLSKQPKSPNSNLAGHQSMADNPAELSDALKNSNILTAPAVKTDHTQAVDKKASNNKYHNSLVSDRSFEREYVVVEKKSVEVNSLADEVAQAGFNPNPIKHPTSTQNQNVLLNEQFSPNNQQYFQNQGENPRLLRATSSSSGGSDGSRRPSLVDRRLSISSLNPSNALSRALGIASTRLFGGANQQQQQQQITSSPPYSQTLLNSQLFHELTENIILRIDHLQHPETLKLDNTNIVSILESLAAKAFVVYSYAEVKFSQIVPLSTTLKGMANFENRRSMDSNAIAEEQDSDDAEEEDETLKKYKEDCLSTKTFGKGRTLSATSQLSATFNKLPRSEMILLCNEAIVLYMKALSILSKSMQVTSNWWYESQEKSCSLRVNVLVQWLREKFNECLEKADFLRLKINDLRFKHASEVAENQTLEEKGSSEEPVYLEKLLYDRALEISKMAAHMELKGENLYNCELAYATSLWMLETSLDDDDFTNAYGDYPFKTNIHLKSNDVEDKEKYHSVLDENDRIIIRKYIDSIANRLKILRQKMNHQN"}},
  "data": [
    {"variants_of": "B1", "assay": "CoIP (quantified western blot); proteins overexpressed with a CUP1 promoter in an atg11∆ strain; five independent replicates; read off a plot", "values": [
      {"variant": "chain 1 Y565E", "ratio to parent": "~0.88"}
    ]},
    {"variants_of": "B2", "assay": "CoIP (quantified western blot); proteins overexpressed with a CUP1 promoter in an atg11∆ strain; ≥ 3 independent replicates; read off a plot", "values": [
      {"variant": "chain 1 Y565E", "ratio to parent": "~-0.05"}
    ]},
    {"variants_of": "B3", "assay": "CoIP (quantified western blot); endogenously driven Atg1-PA; overexpressed GFP-Atg11; four independent replicates; read off a plot", "values": [
      {"variant": "chain 1 Y565E", "ratio to parent": "~0.13"}
    ]}
  ]
}
